We go through 3 molecules from article PMC3748026, “The Mini-Chromosome Maintenance (Mcm) Complexes Interact with DNA Polymerase α-Primase and Stimulate Its Ability to Synthesize RNA Primers” (PLoS ONE, 2013).

Data set [1] concerns the molecule itself. In words: native gel or EMSA; proteins alone or mixed, 25 mM Tris-HCl pH 7.5, 5 mM magnesium acetate, 20 mM 2-mercaptoethanol, 0.01% Triton X-100, 1 mM ATP, 30°C 15 min; 5% native PAGE at 4°C, silver staining; no DNA.
The target of data set [2] is T1, mouse Mcm2∼7 complex (Mcm2/3/4/5/6/7), Flag tag on Mcm5 (mouse, UniProt P97310 1-904; P25206 1-812; P49717 1-862; P49718 1-734; P97311 1-821; Q61881 …). In words: cell-based or functional assay.
The target in data set [3] is mouse Mcm4/6/7 complex (His6-Mcm4, Mcm6, Mcm7-Flag) (mouse, UniProt P49717 1-862; P97311 1-821; Q61881 1-719). In words: cell-based or functional assay.
Data set [4] addresses T1, mouse Mcm2∼7 complex (Mcm2/3/4/5/6/7), …. In words: co-IP; purified Mcm2∼7 (Flag tag on Mcm5) held on anti-Flag M2 antibody agarose beads, mixed with purified primase, His-p48 or GINS, with or without an oligonucleotide, GINS or DNase I; 50 mM Tris-HCl pH 7.5, 100 mM sodium acetate, 5 mM magnesium acetate, 1 mM ATP, 10% glycerol, 0.01% Triton X-100; 2 h at 4°C; eluted with 0.1 M glycine pH 2.8 or boiled; silver or SYPRO staining and Western blotting. The conditions noted are these: both partners purified.

For data set [5], the target named is Mcm4/6/7 complex;DNA primase p48/p58 (mouse;human, UniProt P49717;P97311;Q61881;P49642;P49643 1-862;1-821;1-719;1-420;1-509, |). Briefly: EMSA; 0.5 mM ATPgS; 2.3 nM Mcm4/6/7, 25-100 nM primase; slower band, proportional to primase; EMSA: 25 mM Tris-HCl pH 7.5, 40 mM Na acetate, 10 mM Mg acetate, 20 mM 2-mercaptoethanol, 0.25 mg/ml BSA, 0.5 mM ATPgS, 30 C 30 min; pull-down: 25 mM Tris-HCl pH 7.5, 100 mM Na acetate, 10 mM Mg acetate, 0.25 mg/ml casein, 1 mM DTT, 0.01% Triton-X, 0.5 mM ATPgS or 1 mM ATP, 30 C 30 min then beads 4 C 30 min. The note with it: protein: recombinant;recombinant; tags: His6-Mcm4; Mcm7-Flag;His6 on p58; p48 untagged; chain copies: 2;2;2;1;1; label: 5'-32P; single strand.

The target in data set [6] is Mcm4/6/7 complex (mouse, UniProt P49717;P97311;Q61881 1-862;1-821;1-719). Briefly: EMSA; 0.5 mM ATPgS; 2.3 nM Mcm4/6/7; EMSA: 25 mM Tris-HCl pH 7.5, 40 mM Na acetate, 10 mM Mg acetate, 20 mM 2-mercaptoethanol, 0.25 mg/ml BSA, 0.5 mM ATPgS, 30 C 30 min; pull-down: 25 mM Tris-HCl pH 7.5, 100 mM Na acetate, 10 mM Mg acetate, 0.25 mg/ml casein, 1 mM DTT, 0.01% Triton-X, 0.5 mM ATPgS or 1 mM ATP, 30 C 30 min then beads 4 C 30 min. The note with it: protein: recombinant; tags: His6-Mcm4; Mcm7-Flag; chain copies: 2;2;2; label: 5'-32P; single strand.

Data set [7] has as its target T2, DNA primase p48/p58 (human, UniProt P49642;P49643 1-420;1-509).
T2 sequence 1: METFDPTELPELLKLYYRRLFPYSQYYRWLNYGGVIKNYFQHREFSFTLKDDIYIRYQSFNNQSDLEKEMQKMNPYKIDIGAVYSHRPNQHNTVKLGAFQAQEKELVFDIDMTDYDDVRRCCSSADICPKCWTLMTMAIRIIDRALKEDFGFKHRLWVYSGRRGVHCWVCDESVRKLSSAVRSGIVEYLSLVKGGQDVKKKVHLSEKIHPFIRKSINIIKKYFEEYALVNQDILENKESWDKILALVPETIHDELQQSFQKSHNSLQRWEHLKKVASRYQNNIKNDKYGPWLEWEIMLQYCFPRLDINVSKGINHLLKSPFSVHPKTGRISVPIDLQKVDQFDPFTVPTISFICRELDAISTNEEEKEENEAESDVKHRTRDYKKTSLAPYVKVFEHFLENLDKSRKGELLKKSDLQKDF
T2 sequence 2: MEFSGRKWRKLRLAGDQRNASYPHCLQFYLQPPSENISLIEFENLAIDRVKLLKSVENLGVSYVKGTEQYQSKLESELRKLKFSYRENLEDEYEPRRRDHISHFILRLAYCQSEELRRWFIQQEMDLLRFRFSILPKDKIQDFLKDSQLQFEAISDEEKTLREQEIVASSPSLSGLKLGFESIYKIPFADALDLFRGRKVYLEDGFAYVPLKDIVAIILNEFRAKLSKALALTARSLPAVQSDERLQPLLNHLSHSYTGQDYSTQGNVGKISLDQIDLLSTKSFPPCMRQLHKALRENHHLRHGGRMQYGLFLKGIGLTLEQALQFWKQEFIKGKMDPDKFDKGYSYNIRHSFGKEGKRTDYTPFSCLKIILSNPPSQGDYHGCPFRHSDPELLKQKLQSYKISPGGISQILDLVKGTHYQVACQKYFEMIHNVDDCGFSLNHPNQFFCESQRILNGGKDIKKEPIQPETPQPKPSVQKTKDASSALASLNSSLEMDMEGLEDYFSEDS
In words: EMSA; 0.5 mM ATPgS; EMSA: 25 mM Tris-HCl pH 7.5, 40 mM Na acetate, 10 mM Mg acetate, 20 mM 2-mercaptoethanol, 0.25 mg/ml BSA, 0.5 mM ATPgS, 30 C 30 min; pull-down: 25 mM Tris-HCl pH 7.5, 100 mM Na acetate, 10 mM Mg acetate, 0.25 mg/ml casein, 1 mM DTT, 0.01% Triton-X, 0.5 mM ATPgS or 1 mM ATP, 30 C 30 min then beads 4 C 30 min. The conditions noted are these: protein: recombinant; tags: His6 on p58; p48 untagged; copies: 1;1; label: 5'-32P; single strand.

Chain of mouse Mcm4/6/7 complex (His6-Mcm4, Mcm6, Mcm7-Flag) (P49717 whole entry, chain 1 of 3): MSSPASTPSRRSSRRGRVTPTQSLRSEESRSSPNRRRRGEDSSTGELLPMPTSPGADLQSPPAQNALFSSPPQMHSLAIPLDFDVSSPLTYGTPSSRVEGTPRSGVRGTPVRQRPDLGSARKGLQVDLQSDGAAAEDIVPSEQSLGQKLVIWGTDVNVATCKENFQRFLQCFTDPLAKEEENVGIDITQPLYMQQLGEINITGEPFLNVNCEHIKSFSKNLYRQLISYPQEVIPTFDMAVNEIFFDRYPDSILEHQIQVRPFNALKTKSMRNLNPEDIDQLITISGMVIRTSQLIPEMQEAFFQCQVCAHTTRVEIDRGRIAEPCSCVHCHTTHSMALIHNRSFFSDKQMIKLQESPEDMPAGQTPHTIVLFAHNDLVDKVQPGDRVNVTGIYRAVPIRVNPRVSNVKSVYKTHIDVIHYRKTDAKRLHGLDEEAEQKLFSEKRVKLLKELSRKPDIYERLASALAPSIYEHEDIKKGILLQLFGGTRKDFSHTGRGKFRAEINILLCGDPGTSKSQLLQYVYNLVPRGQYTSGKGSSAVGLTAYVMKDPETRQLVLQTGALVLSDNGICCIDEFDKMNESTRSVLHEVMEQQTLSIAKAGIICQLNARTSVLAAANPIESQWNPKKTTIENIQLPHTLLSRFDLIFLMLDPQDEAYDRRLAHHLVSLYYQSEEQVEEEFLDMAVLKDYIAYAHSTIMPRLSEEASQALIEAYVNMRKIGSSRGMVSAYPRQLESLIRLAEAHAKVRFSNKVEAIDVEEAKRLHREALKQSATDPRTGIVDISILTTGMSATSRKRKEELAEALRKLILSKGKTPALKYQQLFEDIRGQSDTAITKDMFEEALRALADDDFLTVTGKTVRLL
Chain of mouse Mcm4/6/7 complex (His6-Mcm4, Mcm6, Mcm7-Flag) (P97311 whole entry, chain 2 of 3): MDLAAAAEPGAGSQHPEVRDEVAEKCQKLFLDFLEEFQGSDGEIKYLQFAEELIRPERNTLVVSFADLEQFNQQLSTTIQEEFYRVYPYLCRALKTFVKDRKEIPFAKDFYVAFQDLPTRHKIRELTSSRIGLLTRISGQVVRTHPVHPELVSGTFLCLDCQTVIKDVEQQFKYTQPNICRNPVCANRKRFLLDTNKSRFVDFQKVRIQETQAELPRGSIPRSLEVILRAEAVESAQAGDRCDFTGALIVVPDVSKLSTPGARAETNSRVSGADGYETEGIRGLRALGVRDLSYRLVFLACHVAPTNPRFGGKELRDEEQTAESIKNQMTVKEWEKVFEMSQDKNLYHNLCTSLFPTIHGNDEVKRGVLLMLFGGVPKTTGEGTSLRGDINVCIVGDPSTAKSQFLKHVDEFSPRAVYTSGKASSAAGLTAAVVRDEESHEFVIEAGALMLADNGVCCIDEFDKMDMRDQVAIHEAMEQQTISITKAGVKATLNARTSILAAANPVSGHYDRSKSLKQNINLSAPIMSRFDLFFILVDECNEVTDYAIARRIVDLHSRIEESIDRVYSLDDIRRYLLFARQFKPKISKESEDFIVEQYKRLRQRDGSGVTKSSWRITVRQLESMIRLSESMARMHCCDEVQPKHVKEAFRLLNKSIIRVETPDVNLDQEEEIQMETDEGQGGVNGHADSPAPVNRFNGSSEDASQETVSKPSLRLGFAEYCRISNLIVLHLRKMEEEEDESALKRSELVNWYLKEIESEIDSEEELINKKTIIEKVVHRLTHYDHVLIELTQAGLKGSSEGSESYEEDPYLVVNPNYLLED
Chain of mouse Mcm4/6/7 complex (His6-Mcm4, Mcm6, Mcm7-Flag) (Q61881 whole entry, chain 3 of 3): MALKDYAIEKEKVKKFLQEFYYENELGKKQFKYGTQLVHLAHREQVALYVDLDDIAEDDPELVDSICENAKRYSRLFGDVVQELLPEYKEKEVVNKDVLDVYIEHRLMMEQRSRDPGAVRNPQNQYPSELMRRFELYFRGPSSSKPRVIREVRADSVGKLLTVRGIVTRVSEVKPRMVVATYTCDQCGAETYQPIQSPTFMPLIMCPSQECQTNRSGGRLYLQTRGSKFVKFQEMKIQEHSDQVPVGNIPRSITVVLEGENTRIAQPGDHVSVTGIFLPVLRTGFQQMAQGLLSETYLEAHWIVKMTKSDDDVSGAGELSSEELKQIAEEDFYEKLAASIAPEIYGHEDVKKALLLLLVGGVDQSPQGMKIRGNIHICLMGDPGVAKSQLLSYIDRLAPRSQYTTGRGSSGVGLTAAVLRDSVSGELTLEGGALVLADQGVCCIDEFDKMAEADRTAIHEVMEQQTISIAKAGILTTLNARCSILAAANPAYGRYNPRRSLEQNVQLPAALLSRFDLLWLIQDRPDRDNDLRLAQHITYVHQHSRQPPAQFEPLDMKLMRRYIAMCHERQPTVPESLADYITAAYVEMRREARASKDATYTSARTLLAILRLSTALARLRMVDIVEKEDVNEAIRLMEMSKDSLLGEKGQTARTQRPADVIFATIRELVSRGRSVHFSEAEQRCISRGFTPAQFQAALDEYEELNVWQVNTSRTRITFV
Chain of Mcm4/6/7 complex (P49717 whole entry, chain 1 of 3): as the sequence (P49717 whole entry, chain 1 of 3) above
Chain of Mcm4/6/7 complex (P97311 whole entry, chain 2 of 3): as the sequence (P97311 whole entry, chain 2 of 3) above
Chain of Mcm4/6/7 complex (Q61881 whole entry, chain 3 of 3): as the sequence (Q61881 whole entry, chain 3 of 3) above
Chain of Mcm4/6/7 complex;DNA primase p48/p58 (P49717 whole entry, chain 1 of 3): as the sequence (P49717 whole entry, chain 1 of 3) above
Chain of Mcm4/6/7 complex;DNA primase p48/p58 (P97311 whole entry, chain 2 of 3): as the sequence (P97311 whole entry, chain 2 of 3) above
Chain of Mcm4/6/7 complex;DNA primase p48/p58 (Q61881 whole entry, chain 3 of 3): as the sequence (Q61881 whole entry, chain 3 of 3) above

B1: human DNA primase p48/p58 hetero-dimeric complex (His-tagged p58, non-tagged p48) (complex)
chain 1: METFDPTELPELLKLYYRRLFPYSQYYRWLNYGGVIKNYFQHREFSFTLKDDIYIRYQSFNNQSDLEKEMQKMNPYKIDIGAVYSHRPNQHNTVKLGAFQAQEKELVFDIDMTDYDDVRRCCSSADICPKCWTLMTMAIRIIDRALKEDFGFKHRLWVYSGRRGVHCWVCDESVRKLSSAVRSGIVEYLSLVKGGQDVKKKVHLSEKIHPFIRKSINIIKKYFEEYALVNQDILENKESWDKILALVPETIHDELQQSFQKSHNSLQRWEHLKKVASRYQNNIKNDKYGPWLEWEIMLQYCFPRLDINVSKGINHLLKSPFSVHPKTGRISVPIDLQKVDQFDPFTVPTISFICRELDAISTNEEEKEENEAESDVKHRTRDYKKTSLAPYVKVFEHFLENLDKSRKGELLKKSDLQKDF
chain 2: MEFSGRKWRKLRLAGDQRNASYPHCLQFYLQPPSENISLIEFENLAIDRVKLLKSVENLGVSYVKGTEQYQSKLESELRKLKFSYRENLEDEYEPRRRDHISHFILRLAYCQSEELRRWFIQQEMDLLRFRFSILPKDKIQDFLKDSQLQFEAISDEEKTLREQEIVASSPSLSGLKLGFESIYKIPFADALDLFRGRKVYLEDGFAYVPLKDIVAIILNEFRAKLSKALALTARSLPAVQSDERLQPLLNHLSHSYTGQDYSTQGNVGKISLDQIDLLSTKSFPPCMRQLHKALRENHHLRHGGRMQYGLFLKGIGLTLEQALQFWKQEFIKGKMDPDKFDKGYSYNIRHSFGKEGKRTDYTPFSCLKIILSNPPSQGDYHGCPFRHSDPELLKQKLQSYKISPGGISQILDLVKGTHYQVACQKYFEMIHNVDDCGFSLNHPNQFFCESQRILNGGKDIKKEPIQPETPQPKPSVQKTKDASSALASLNSSLEMDMEGLEDYFSEDS
notes: DNA primase small subunit p48, human; DNA primase large subunit p58, human; End of the His tag is read from the printed name His-p58; also called His-p58/p48 complex; His-tagged p48/p58 complex; source: E. coli BL21 (DE3) RIL, purified as previously described [58]; not shown: His tag, N-terminal, kept
For the molecule B1, in data set [1], the binding result is on record as “binds”. Moreover, the “RNA primer synthesis by p48/p58 primase on poly(dT) with 100-400 ng of Mcm2∼7” value in data set [2] was around 3 fold. Moreover, in data set [3], the “RNA primer synthesis by p48/p58 primase on M13 ssDNA with 100-600 ng of Mcm4/6/7” value is 4 to 7 fold and the “RNA primer synthesis by p48/p58 primase on poly(dT) with 100-600 ng of Mcm4/6/7” value is around 3 fold.

B2: His-tagged p48 alone (human DNA primase p48 single subunit) (natural protein, UniProt P49642 1-420, looked up)
chain: METFDPTELPELLKLYYRRLFPYSQYYRWLNYGGVIKNYFQHREFSFTLKDDIYIRYQSFNNQSDLEKEMQKMNPYKIDIGAVYSHRPNQHNTVKLGAFQAQEKELVFDIDMTDYDDVRRCCSSADICPKCWTLMTMAIRIIDRALKEDFGFKHRLWVYSGRRGVHCWVCDESVRKLSSAVRSGIVEYLSLVKGGQDVKKKVHLSEKIHPFIRKSINIIKKYFEEYALVNQDILENKESWDKILALVPETIHDELQQSFQKSHNSLQRWEHLKKVASRYQNNIKNDKYGPWLEWEIMLQYCFPRLDINVSKGINHLLKSPFSVHPKTGRISVPIDLQKVDQFDPFTVPTISFICRELDAISTNEEEKEENEAESDVKHRTRDYKKTSLAPYVKVFEHFLENLDKSRKGELLKKSDLQKDF
notes: DNA primase small subunit p48, human; End of the His tag is read from the printed name His-p48; also called His-p48; source: E. coli BL21 (DE3) RIL, purified as previously described [58]; not shown: His tag, N-terminal, kept
Consider B2, for which the binding result in data set [4] is listed as “binds”.

B3: 132-mer pyrimidine-rich oligonucleotide (ssDNA)
DNA: CCACACATGATTTGTTTGCTCCCTGAAATGATCTATATTTAATATATAATGTATATTCCCTCGGGATTTTTTATTTTGTGTTATTCCACGGCATGAAAAACAAAAAACATTCTTCTCATCCTTGGTCCCTCA
Consider B3, for which the binding result in data set [5], in data set [6] and in data set [7] was “binds” in each case.
